Columns and labels:
[1] = target: fibrillar Aβ (Aβ1-42 fibrils); experiment: solution-phase equilibrium titration, free antibody read by ELISA on ADDL-coated plate, GRAFIT fit
Aβ1-40 monomer = experiment: as above
[2] = target: amyloid β-derived diffusible ligands (ADDLs), oligomers of Aβ1-42; experiment: as above
Aβ1-20 peptide = experiment: as above
biotinylated ADDLs [3] = experiment: ELISA on coated antigen, chemiluminescence; antibody stored 1 month at 4°
Aβ1-42 monomer = experiment: ELISA, IgG2 antibodies
biotinylated ADDLs [4] = experiment: ELISA on coated antigen, chemiluminescence; antibody at 0 timepoint
biotinylated ADDLs [5] = experiment: ELISA on coated antigen, chemiluminescence; antibody stored 1 month at 25°
biotinylated ADDLs [6] = experiment: ELISA on coated antigen, chemiluminescence; antibody stored 1 month at 40°

Sequence of Aβ1-20 peptide (peptide, as listed by the source): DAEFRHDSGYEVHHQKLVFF

| Kd [1] | Kd (Aβ1-40 monomer) | Kd [2] | Kd (Aβ1-20 peptide) | EC50 (biotinylated ADDLs [3]) | EC50 (Aβ1-42 monomer) | EC50 (biotinylated ADDLs [4]) | EC50 (biotinylated ADDLs [5]) | EC50 (biotinylated ADDLs [6]) | Substance |
| --- | --- | --- | --- | --- | --- | --- | --- | --- | --- |
| 1.15 nM | 6.15 nM | 0.57 nM | 19.3 nM |  |  |  |  |  | WO-2 (antibody) |
|  |  |  |  | 1.7 nM | 18 nM | 1.1 nM | 2.1 nM | 5.9 nM | anti-ADDL antibody 19.3 |

Reference: patent publication US20130130288A1
